Laboratory results taken from the supplement of paper PMC12636428.

test system: Saccharomyces cerevisiae; test: transcriptional activation domain activity (GFP:mCherry ratio, weighted mean of sorted bins, harmonized to initial dataset scale) (arbitrary fluorescence ratio units); higher = stronger transcriptional activation; details: beta-estradiol 1 µM; induction time 4 h
Experimental: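 53-aa protein tiles (fungal proteins plus yeast TF control tiles) fused C-terminally to a DBD-estrogen-binding domain-mCherry synthetic TF, integrated in S. cerevisiae (URA3 locus) with a GFP reporter. Cells were induced with 1 uM beta-estradiol for 4 h at 30 C, FACS-sorted into 8 bins by GFP:mCherry ratio and barcodes sequenced. Activity is the read-weighted mean bin fluorescence (GFP:mCherry), averaged over barcodes (median 12); tiles under 50 reads were discarded. New active-learning values were harmonized by linear fit onto the scale of the initial (Hummel et al.) dataset. The assay saturates at low and high signal.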

Row | Sequence | transcriptional activation domain activity
1 | DAPAQPEPADDGEEAEEVDEPKGKKGKGGGKKGGGKGKGGKGKEKKADKAAAE | 29400
2 | DAPEKEPEAEAAKPKGRGGRPKKVVPPAAAAPAPKEKEEPKPKAAAGRKRKAP | 32100
3 | DAPPQKGDRKAEVQDGENGDEVGQDPKGKDKGGRGRGRGGRGRGGAARGGATA | 36600
4 | DARRLLSCVRMGFAFYASGCMSTSLILFFSFCLLLPPILTGYQILWLLCIILP | 68400
5 | DATPAAPANGNDGFHEVQHRGRGRGGFQGEGRGGGGYRGRGGRGGEGRGRGRG | 25800
6 | DAYLLWGPGFIPTVCHIHDFPLLLPVAIFLVYINLSSCHLDPLISFLFLPLFG | 66500
7 | DCDIAQQQRFGAMFDDLLKSRETYFLRCSLSTWEIEHDVWWPFYLRSLEWCYF | 50000
8 | DCDLTCDTPCTASTSATSGHKFVQDHQSSNNDDVFHKYCKFCEESTDNQPCSK | 58300
9 | DCSSILFSPLTTNTNNEFEGESDDFVHSPYLNSEADFSQILSSAPPVHHDPNE | 72800
10 | DDAAADLQEAQAGASKKNRKRNRKKNAQDGPAEEATPSKGARQGKKGKGWRET | 12000
11 | DDADGKARSRRKDYSDDERGDTRRSRRDEHRSSKEHRSRTVKEGENDRRKAHR | < 6570
12 | DDAVVESFFSSSTDSTPMFEYENLEDNSKEWTSLFDNDIPVTTDDVSLADKAI | 114000
13 | DDDDDDVETHSIVHSDLLNDMDSASQRASHNASGFPNFLDTSCSSSFDDHFIF | 69100
14 | DDDIAMFDSLATTQPIDIAASNQQNGEIAQLWDFNVDQFNMTPSNSSGSATIS | 91100
15 | DDDKKETGAFTHQWILLAKSRASHILLCITYFYASVLAVVSVGSVNWRNVAVK | 63000
16 | DDEADGKRRRVQRACDSCRKKKCDVRARVYLCGCSKTPRSASQLLRRARGAHG | 42500
17 | DDEDEEQEEEEEDVDPEVRRKEELRARMAKMSGGMGMAGMFGMMPMPGAGAPP | 41500
18 | DDEEENKSAPAKKSRAKKTVKKEEDDDDNNAEEAKPAPAKKSRAKKAVKKEED | 57900
19 | DDEGSTRDRKSHKRRSRDKDDSDEEEDRKRRKRRKERERSKDKEERRSVLTGK | 28900
20 | DDEHEDRHREGRGSRGDRTRSASADSKHRSSRRDKEKHRSSRSHRDRSKEQRR | 37400
21 | DDENEGSDTEAEAPAEKPKRGRKKAAPKEGADGEEEAPAAKKAAPRGRGKKAA | 6980

Row | Sequence | transcriptional activation domain activity
22 | DDERERKRAKGDKDEECHKEPKRSARDKQEESSTTRNSRQSKKPKTAAQPEAK | 7230
23 | DDETADGERQSKREKADDDDDGEEMEIDEEEESAANRNTAVVPPAVQKPSARL | 19200
24 | DDGESKEKRSRREKSAASEDESRKRSKSRSKSKSKTPSGNDESSNEDTSAGAD | 18600
25 | DDHRSRRYRDRGRDRDQDEDAEDSHRDRRRRRRSPDEGASRRHQRESHADGDG | 35700
26 | DDKPAEKKEAAAAPKKEEAKKEEAKPAEKKEEPKKEAATAVPKATEKKPATAA | 25900
27 | DDLLVCVAQVVDICYSVFFWFPGIQFQPRPPPLPPIINLWASNILMYTILWIS | 60700
28 | DDLQQLLEDLGNIDHSDEKLWKEITDQAMWLGNTMDPTAAAGSEIDFTDYLGP | 144000
29 | DDNAGDGSLSSVVKVWLEGLTPSGRVEIFGRRNPPPVVRFLLLLVVSRRIGSL | 58600
30 | DDPDVEESDDEPVELWVARGEDRCDACKQRNIRVCEPQWGAPRSSACKTCARK | 31700
31 | DDPGATPHDPNDPKRPRACEACRGLKVKCEPDPSNPDGPCKRCAKAGRNCVVT | 16300
32 | DDSAASHAESKEARDGANEADTSSTGGEADSALKESNTKAERRQDKKEEEASG | 34100
33 | DDSRERRRSSRKDREKDRKERKRHRHRSDDKSEDDDDRRHRKDRKRSRPSSAA | 22100
34 | DDTGEEEQPPPASNSSAGVATSTTVVPQQLPARYRLRAFISHKGPSVHSGHYV | 29800
35 | DEDAEGEDDPESAEPAKKRGRPPGSGKKRKPAAEKPKPQPGRGRGRPKKSEAA | 18000
36 | DEDATNENMSGPAMDVDEARNFINARLDLLKRTLHPNPIVVTAQLLKAVWAAY | 36200
37 | DEDDDDDDNDDADADDEPARRPKKSKSSQKSRSKKPAAKRAKVNGTTPAAAHS | 20000
38 | DEDPAKKGKKKASEPAATKVKAARGRKSKAAATEGSEAGPSKPPAKGRGKKAA | 15800
39 | DEDRRKRRRSRSRSPDREEESSRRRRDRSRSRSKDADRKKRKRDKSEERKARK | 30900
40 | DEEDIWNYLPSSSSQQEDSSRALKKNTNSEKANIQAKNDETYLFLQDQDESAD | 46700
41 | DEEEAPEEGARGRRRKGRGKGKGKQGGGGEEEGGDGEEVEGEGEAEGEQENAG | 24000
42 | DEEGRKRGGEREKGQHAGDERRRRRRRGEREGRERQKEGRRGPGRQSKDGKEG | 49500

Row | Sequence | transcriptional activation domain activity
43 | DEEGRRALPRRCVLVMGSEREGVPGPVLAECDGCVEVRQVGVTRSLNVQTAAA | 28700
44 | DEEQDRSHRHRRSRSASPRRHKSGNEARERDRHGDDHSRRHRRRRSHERSHRH | 48700
45 | DEGESAAPADSAAQAQHLDATKKGHYKLSSFISHKGPSVHCGHYVSHIKKGDQ | 51800
46 | DELSRQKLGPDLHTILANLPGDLFGIYSRFLRPIHPRDFIHVARFLRWLLYAW | 69500
47 | DEPFKCTQSRCSIILPRDLMAVHFSYRRRTLKLIRSCPITKCSFRIRLFRPQS | 69700
48 | DEPTTDEKKVEETAVAVANLSVEGKKDEKKEEATLSDDKKTEAATEAVAAAPV | 10100
49 | DERRLVWPSRLTFMKVVFLLNRYVPFAGSFGMMYVLTLVNPVTQSDFCKHGFL | 54900
50 | DESINGSEMPDFSLDLVSNDRQTGLEALDYDIHNYFPQHSERLTAEKIDTSAC | 76700
51 | DESPDADATKREKKKKKQKKRKVLQKEEEEEAEAARDKRERKKRKKSKSDIRR | 39200
52 | DETAPATEEASKEGEAAEEAAPAAEAEETKTEEAPNKEEGTKRRSASRKRVSI | 37200
53 | DETLAYIARRHNYTGKSLILPPTEITLRFFAHVARVMELSMADLLIALVYVRR | 50100
54 | DETNIHFDSMWCNDEYMKLKDIVDISTPFLPNNSQIFSLQESEYPNPSASTRG | 136000
55 | DEVLKPLWLGIRLHRGKGLAAFLKAIGFIIPLMDPNTLTVILIREFQTSDEEM | 15100
56 | DEVMKIMPVQKQTRAGQRTRFKAFVVIGDSEGHVGLGVKCAKEVATAIRGAII | 59300
57 | DEVTDWFGASEDIGLEFVEPWTELIEQRYMQCGDGDNNNFENLYNLFVNSNNI | 137000
58 | DEYGNAKIRDLRLKPVQTISDSQTVDEAVELMRDKGYDQVPVTSSTGRRLVGM | 73300
59 | DFDVNEFDPQVLFSTGTRTVEFMDDQNQPSSASAFLSTARPNHYSTHTPTTDV | 75300
60 | DFFLGERDLLQETVSEEWLQFFDDGDLDQILDFLIFFKNPESLHPPSSLVDFI | 158000
61 | DFKHPMEPLACNWEDCDFLGDDTCSIVNHINCQHGINFDIQFANPDSFLPGSI | 141000
